For test [1], the target named is T1, Fc tagged human SIRPα v1 ECD recombinant protein (human, UniProt P78324 31-370).
T1 construct: range 1-370; cloned range M1-R370 includes the signal peptide; also called hSIRPα V1; not shown: human IgG Fc region (hFc) of the pCPC vector
As to the kind of experiment: ELISA. An outline of the steps: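 Antibodies were incubated on plates coated with recombinant SIRP ECD antigens for 1 h at 37° C. Detection used HRP anti-mouse or anti-human IgG (1 h, 37° C), then TMB for 15 min at room temperature, stopped with 1N HCl. EC₅₀ was derived from OD 450 nm.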
For orientation: ELISA stands for enzyme-linked immunosorbent assay.

Test [2] addresses T1, Fc tagged human SIRPα v1 ECD …. As to the kind of experiment: ELISA. On the procedure:
(§1) Binding specificity of the purified hybridoma antibodies against SIRP family members was detected by ELISA assay using recombinant proteins of Fc tagged human SIRPα v1 ECD, human SIRPα v2 ECD, human SIRPβ ECD and human SIRPγ ECD. Briefly the antibodies were incubated with ELISA microplate coated antigens at 37° C. for 1 hour. After washing, horseradish peroxidase (HRP) labeled anti-mouse or anti-human IgG 2nd Ab (Sigma) was added and incubated at 37° C. for 1 hour. Then, 100 μl/well of TMB solution (Biotechnology) was added. After incubation for 15 minutes at room temperature, the reaction was stopped by the addition of 50 μl of 1N HCl. OD 450 nm was read and EC₅₀ was calculated. Other than 060 and HEFLB, all of the antibodies as tested can bind with both human SIRPα v1 and SIRPα v2. 060 and HEFLB can bind with human SIRPα v1 but not v2. Other than 055, all of the antibodies as tested can bind with human SIRPβ. In comparison with other known anti-SIRPα antibodies, only 022, 035 and 050 can bind with human SIRPγ weakly.
(§2) The purified chimeric antibodies were applied for binding specificity analysis and species cross reactivity analysis (refer to methods described in Example 3.3 and 3.4). FIGS. 1A to 1D show binding specificity of anti-SIRPα chimeric antibodies against recombinant proteins of human SIRPα v1 ECD (A), human SIRPα v2 ECD (B), human SIRPβ ECD (C) and human SIRPγ ECD (D) as measured by ELISA analysis.
The source holds these as a separate data set.

Test [3] has the same target. Kind of test: ELISA. The method, then: as §1, §2
This is another data set of the same source.

Test [4] concerns the target T2, full length human SIRPα v1 stably expressed on CHOK1 cells (human, UniProt P78324 31-504).
T2 construct: whole, on cells; also called CHOK1-human SIRPα v1-1B4 cells; CHOK1-human SIRPα v1
As to the kind of experiment: FACS on CHOK1 cells.

Test [5] addresses T2, full length human SIRPα v1 stably …. As to the kind of experiment: FACS on CHOK1 cells. On the procedure:
Species cross reactivity of the purified hybridoma antibodies against human, cyno and mouse SIRPα was determined by FACS assay using CHOK1-human SIRPα v1-1B4 cells, CHOK1-cyno SIRPα-2A2 cells, and CHOK1-C57BL/6 mouse SIRPα-2.22 cells, which stably expressing SIRPα protein. Briefly the antibodies were incubated with 2×10⁵ target cells at 4° C. for 1 hour. After washing, fluorescence labeled anti-mouse or anti-human IgG 2nd antibody (Life Technologies) was added and incubated at 4° C. for 1 hour. Geometric median fluorescence intensity was detected and EC₅₀ was calculated. In particular, it is noted, in contrast to the other antibodies tested in the same experiment, 060 cannot bind with cyno SIRPα and 035 has cross reactivity against C57BL/6 mouse SIRPα. […]
This is another data set of the same source.

Test [6] has the same target. As to the kind of experiment: FACS on CHOK1 cells. The method, then:
(§3) Species cross reactivity of the purified hybridoma antibodies against human, cyno and mouse SIRPα was determined by FACS assay using CHOK1-human SIRPα v1-1B4 cells, CHOK1-cyno SIRPα-2A2 cells, and CHOK1-C57BL/6 mouse SIRPα-2.22 cells, which stably expressing SIRPα protein. Briefly the antibodies were incubated with 2×10⁵ target cells at 4° C. for 1 hour. After washing, fluorescence labeled anti-mouse or anti-human IgG 2nd antibody (Life Technologies) was added and incubated at 4° C. for 1 hour. Geometric median fluorescence intensity was detected and EC₅₀ was calculated. In particular, it is noted, in contrast to the other antibodies tested in the same experiment, 060 cannot bind with cyno SIRPα and 035 has cross reactivity against C57BL/6 mouse SIRPα.
as §2
The source holds these as a separate data set.

Test [7] concerns the target T3, full length C57BL/6 mouse SIRPα stably expressed on CHOK1 cells (mouse (C57BL/6), UniProt P97797 32-513).
T3 construct: whole, on cells; also called CHOK1-C57BL/6 mouse SIRPα-2.22 cells
T3 sequence (looked up): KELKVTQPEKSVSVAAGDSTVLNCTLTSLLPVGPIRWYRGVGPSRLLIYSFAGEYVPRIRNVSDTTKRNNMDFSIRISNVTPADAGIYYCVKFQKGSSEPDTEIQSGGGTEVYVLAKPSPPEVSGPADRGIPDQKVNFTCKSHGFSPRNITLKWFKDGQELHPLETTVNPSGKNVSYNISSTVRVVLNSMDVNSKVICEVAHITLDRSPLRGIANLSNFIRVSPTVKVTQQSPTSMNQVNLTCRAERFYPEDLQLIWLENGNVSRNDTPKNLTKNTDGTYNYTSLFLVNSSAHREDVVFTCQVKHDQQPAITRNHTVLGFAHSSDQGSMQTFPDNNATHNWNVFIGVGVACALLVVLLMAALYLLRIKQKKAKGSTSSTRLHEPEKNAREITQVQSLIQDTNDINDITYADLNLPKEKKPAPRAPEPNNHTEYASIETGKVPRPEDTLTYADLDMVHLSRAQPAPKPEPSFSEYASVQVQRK
Kind of test: FACS on CHOK1 cells. On the procedure:
as §3, §2

Test [8] has as its target T4, biotin labeled soluble human SIRPα v1 ECD recombinant protein (human, UniProt P78324 31-373, biotin labeled).
T4 construct: extracellular domain
Kind of test: competitive ELISA; competitor 001. In outline: (§4)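 Binning by competitive ELISA with biotin-tagged soluble human SIRPα v1 extracellular domain and surplus competitor antibody on antibody-coated wells; detection via HRP-SA at 37 °C for 1 h, TMB substrate, acid stop, absorbance at 450 nm.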

Test [9] addresses T4, biotin labeled soluble human SIRPα v1 …. As to the kind of experiment: competitive ELISA; competitor 002. An outline of the steps:
as §4

Test [10] shares this target. As to the kind of experiment: competitive ELISA; competitor 035. In outline:
as §4

Like-named read-outs stand apart in the source and are kept apart here.

T1 sequence (P78324 31-370 limits assumed): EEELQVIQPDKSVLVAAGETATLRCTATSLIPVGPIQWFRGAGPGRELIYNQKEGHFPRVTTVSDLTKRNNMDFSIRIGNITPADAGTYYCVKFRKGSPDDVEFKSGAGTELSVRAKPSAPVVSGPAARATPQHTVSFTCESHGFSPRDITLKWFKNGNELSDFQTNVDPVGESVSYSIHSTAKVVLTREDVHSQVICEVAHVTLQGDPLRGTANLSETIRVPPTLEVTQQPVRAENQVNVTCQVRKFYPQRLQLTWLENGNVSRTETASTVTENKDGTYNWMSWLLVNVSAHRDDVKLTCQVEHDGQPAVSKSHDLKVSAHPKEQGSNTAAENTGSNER
T2 sequence (P78324 31-504): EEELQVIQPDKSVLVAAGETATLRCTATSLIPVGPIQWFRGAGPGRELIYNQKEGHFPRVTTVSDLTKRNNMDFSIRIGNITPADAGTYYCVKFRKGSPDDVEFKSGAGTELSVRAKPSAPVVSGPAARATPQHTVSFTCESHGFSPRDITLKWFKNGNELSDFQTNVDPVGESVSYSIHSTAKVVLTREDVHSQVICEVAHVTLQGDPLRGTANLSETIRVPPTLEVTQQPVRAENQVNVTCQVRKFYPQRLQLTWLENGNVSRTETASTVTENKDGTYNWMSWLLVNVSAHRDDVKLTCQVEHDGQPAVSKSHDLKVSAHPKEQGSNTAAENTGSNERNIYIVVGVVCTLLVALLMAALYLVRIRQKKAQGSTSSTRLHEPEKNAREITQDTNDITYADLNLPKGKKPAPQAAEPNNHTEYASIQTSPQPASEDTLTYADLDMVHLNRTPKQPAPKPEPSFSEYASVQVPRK
T4 sequence (P78324 31-373): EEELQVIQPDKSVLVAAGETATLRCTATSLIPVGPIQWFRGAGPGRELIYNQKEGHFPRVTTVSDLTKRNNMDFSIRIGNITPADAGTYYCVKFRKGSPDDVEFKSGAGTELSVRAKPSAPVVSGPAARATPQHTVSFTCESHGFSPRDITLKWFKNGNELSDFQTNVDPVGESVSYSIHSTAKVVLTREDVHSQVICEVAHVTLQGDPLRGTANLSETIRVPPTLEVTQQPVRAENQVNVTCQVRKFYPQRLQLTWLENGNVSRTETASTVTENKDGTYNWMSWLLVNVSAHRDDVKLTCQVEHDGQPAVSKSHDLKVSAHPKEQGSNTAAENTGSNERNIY

B1: reference antibody HEFLB (antibody, V domains shown)
VH: EVQLVQSGAEVKKPGESLRISCKASGYSFTSYWVHWVRQMPGKGLEWMGNIDPSDSDTHYSPSFQGHVTLSVDKSISTAYLQLSSLKASDTAMYYCVRGGTGTLAYFAYWGQGTLVTVSS
VL: DVVMTQSPLSLPVTLGQPASISCRSSQSLVHSYGNTYLYWFQQRPGQSPRLLIYRVSNRFSGVPDRFSGSGSGTDFTLKISRVEAEDVGVYYCFQGTHVPYTFGGGTKVEIK
As to B1, the EC50 (as a rule, the concentration that produces a half-maximal response) worked out at 0.17 nM in [1]; 0.11 nM in test [2]; 0.11 nM in [3]; 11.2 nM in test [4]; 11.2 nM in [5]; 11.2 nM in test [6]. In test [7], the binding result is listed as “no binding (tested: 10 nM)”. Moreover, the “% Competition” value turned out to be 89% in [8], 81% in test [9] and 51% in test [10].

B2: reference antibody 29-AM4-5 (antibody, V domains shown)
VH: EVQLVESGGGLVQPGGSLRLSCAASGFNISYYFIHWVRQAPGKGLEWVASVYSSFGYTYYADSVKGRFTISADTSKNTAYLQMNSLRAEDTAVYYCARFTFPGLFDGFFGAYLGSLDYWGQGTLVTVSS
VL: DIQMTQSPSSLSASVGDRVTITCRASQSVSSAVAWYQQKPGKAPKLLIYSASSLYSGVPSRFSGSRSGTDFTLTISSLQPEDFATYYCQQAVNWVGALVTFGQGTKVEIK
Turning to B2, the EC50 in [1] was 0.15 nM; in test [2], 0.11 nM; in test [3] it was 0.11 nM; in test [4], 13.6 nM; in [5], 13.6 nM; in [6] it was 13.6 nM. Also, the binding result in test [7] was “no binding (tested: 10 nM)”. The “% Competition” value was 97% in test [8], 94% in test [9] and 98% in [10].

These data come from patent US20210347908A1 (ELPISCIENCE SUZHOU BIOPHARMA, published 2021).
